Molecular target: human LTβR on A375 cells (human) (UniProt P36941)
Assay: cell-based or functional assay

Sequence of human LTβR on A375 cells (human) (P36941 31-435): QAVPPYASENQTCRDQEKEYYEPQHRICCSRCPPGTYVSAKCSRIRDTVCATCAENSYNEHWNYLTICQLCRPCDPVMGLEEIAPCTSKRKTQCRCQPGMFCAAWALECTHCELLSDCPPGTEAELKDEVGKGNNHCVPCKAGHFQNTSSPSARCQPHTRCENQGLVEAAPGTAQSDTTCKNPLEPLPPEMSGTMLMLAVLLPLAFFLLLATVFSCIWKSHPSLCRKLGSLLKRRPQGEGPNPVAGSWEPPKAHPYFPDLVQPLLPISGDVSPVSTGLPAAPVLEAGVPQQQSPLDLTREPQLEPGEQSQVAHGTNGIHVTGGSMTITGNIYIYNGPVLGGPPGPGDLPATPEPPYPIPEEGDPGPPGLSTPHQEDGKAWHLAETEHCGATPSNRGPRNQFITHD

With “recombinant human LIGHT (R&D systems) (from UniProt O43557 74-240) (ligand)” the IL-8 secretion of A375 cells, EC50 (FIG. 15a) was 0.226 nM and the IL-8 secretion of A375 cells, EC50 (FIG. 15b) was 0.19 nM.
